In patent US20260055441A1, “A PCR-ELISA ANALOGOUS ANTIBODY-FREE METHOD FOR DETECTING A TARGET NUCLEIC ACID IN A SAMPLE” (UNIVERSITÄT HEIDELBERG, priority 2022, published 2026):
“Also recorded” adds a separate entry of the source. Marks after values point to notes of the source that are not given here.

What was measured:
[1] = cited from earlier work; for pKa (H2O): published values, source mark b or d legible
[2] = target: T1, latent papain P13 (Carica papaya, UniProt P00784); assay: Latent papain reactivation assay with thiol activators at 10 μM, rates normalized to 10 μM cysteine (FIG. 18); assay type: biochemical; details: activator 10 μM, latent papain 1 nM, Z-Phe-Arg-AMC 2 μM, well buffer pH 7, no TCEP
T1 construct: purchased Sigma Aldrich (Munich, Germany); host or cells: Papaya latex (natural source)
T1 sequence (P00784 134-345): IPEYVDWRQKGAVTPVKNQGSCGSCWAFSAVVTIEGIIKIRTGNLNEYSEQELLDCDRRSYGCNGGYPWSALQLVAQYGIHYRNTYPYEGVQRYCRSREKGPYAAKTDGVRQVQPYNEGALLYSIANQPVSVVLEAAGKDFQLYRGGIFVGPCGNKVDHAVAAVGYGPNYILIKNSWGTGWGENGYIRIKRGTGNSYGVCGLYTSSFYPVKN
Procedure: All following described fluorometric assays (Examples 1-3) are based on the reaction of reversibly inactivated papain (latent papain) with an activator containing either sulfur or selenium (with the exception of TCEP). Different latent papain forms, buffer compositions and activators in various concentrations were compared. Papain was hereby transferred in buffer (standard well buffer consisted of 0.1 M phosphate pH 7, 4 mM EDTA, 0.01% Brij35 and if activators contained diselenides, 1 μM TCEP) mixed with activator and substrate inside 96 well plates (without prior washing of the plates). After reactivation, active papain hydrolyses the substrate Z-Phe-Arg-AMC (2 μM) and the resulting fluorescence was tracked every minute for 2 h. The slopes of the corresponding curves were calculated for the linear portion within the first 30 minutes and the resulting reaction rates were directly compared. Resulting reaction rates directly reflect reactivation efficiencies of each activator under each reaction condition. […] After addition of activator a fraction of latent papain is immediately reactivated in rather non-stoichiometric proportions. Complete reactivation can generally only be achieved with great excess of activator. The partial reactivation with smaller activator amounts appears almost instantaneously because the resulting reaction curve show linear progression from the start except for very low activator concentrations. After reactivation, all different latent papain forms result in the same active enzyme. If different latent papain forms show different reaction rates in identical activation assays, the efficiency of reactivation with the applied activator can be deduced. The same applies for reactivation of one latent papain form with different activators or reaction conditions.
Several thiol compounds and cysteine containing peptide activators (see Example 4.1) were compared for their potential to reactivate latent papain. To this end, the thiol compounds and cysteine containing peptide activators were utilized in reactivation assays (see Example 5, 5.2.2.2, fluorometric method 2) of papain P13 (see Example 1, 1.2) with an activator concentration of 10 μM. For thiols not completely soluble in phosphate buffer pH 7 at high concentrations, the 1 mM stock solution was prepared in DMSO, resulting in 1% DMSO in the reaction mixture. In order to normalize the observed reaction rates between assays, a 10 μM cysteine sample was additionally measured in every assay and reaction rates of the examined thiols were divided through the reaction rates produced by the 10 μM cysteine standard. Additionally, a measurement with 1 mM cysteine was performed in order to achieve maximal papain activation and therefore the maximal reaction rate within the confines of the assay. The resulting normalized rates are compared in FIG. 18.
(§1) Different assays of reactivating latent papain in solution were conducted in the course of this work. Various buffer compositions, supplements, 96 well plates, substrates, activators, concentrations as well as different latent papain forms were compared. In order to get an overview of all experiments, a standard method is described in the following and variations of this method are subsequently defined. First, the well buffer was prepared (0.1 M phosphate buffer pH 7, 4 mM EDTA, 0.01% Brij35). A 1 mM TCEP solution was prepared with 3 mM NaOH in 0.1 M Tris-HCl buffer pH 8. Papain substrate (Z-Phe-Arg-AMC or Suc-Leu-Leu-Val-Tyr-AMC) was prepared as a 200 μM solution in water and transferred equally to a PCR strip. Three serial dilutions of the activating agent with well buffer were used in the different experiments and the corresponding pipetting schemes are shown in Table 9. Papain was diluted to 0.1 μM with well buffer and transferred equally to a PCR strip. After preparation of the abovementioned solutions, TCEP (1 mM solution) was added to well buffer to yield a final TCEP concentration of 1.1 μM. […]

[3] = target: T2, dU-triazole-PEG3-ULR dimer (21) (not fully specified)
T2 chain: ULR

[4] = target: T3, latent papain forms P20-P28 (Carica papaya, UniProt P00784); assay: Comparison of reactivation efficiencies of latent papain forms with activator dU-triazole-PEG3-ULR (21) (FIG. 15, 16); assay type: biochemical; details: for normalized rate/rate blank after reactivation, in words / reaction rate of substrate hydrolysis after reactivation (not normalized), in words: activator dU-triazole-PEG3-ULR (21) 1-15 nM; for normalized rate/rate blank after reactivation, in words: papain 1 nM (FIG. 16); for reaction rate of substrate hydrolysis after reactivation (not normalized), in words: papain 1 nM (FIG. 15)
T3 construct: purchased Sigma Aldrich (Munich, Germany); host or cells: Papaya latex (natural source)
T3 sequence (P00784 134-345): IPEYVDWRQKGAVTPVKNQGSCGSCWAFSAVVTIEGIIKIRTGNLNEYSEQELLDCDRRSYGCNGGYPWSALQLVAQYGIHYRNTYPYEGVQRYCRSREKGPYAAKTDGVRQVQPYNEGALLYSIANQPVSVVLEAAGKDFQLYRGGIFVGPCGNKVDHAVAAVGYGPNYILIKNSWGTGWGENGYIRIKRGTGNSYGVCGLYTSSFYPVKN
Procedure: In order to reversibly deactivate commercially purchased papain, reactions with different thiosulfonate derivatives were carried out and different latent papain versions were produced. Papain was first incubated with cysteine to yield complete activated papain which could then be incubated and deactivated with the specific thiosulfonate solutions. A mixture of papain disulfides is otherwise to be expected. An additional step was introduced in this work with the goal of further reduction of residual enzymatic activity. After incubation with either thiosulfonate derivative, papain was thus incubated with equimolar amounts of the more efficient irreversible inhibitor E64 (see Example 5, 5.2.1.2) in order to deactivate possible unmodified papain traces. The excess of small molecules was then separated by Sephadex G25 spin columns. Different thiosulfonates were synthesized (data not shown) and used to produce different latent papain forms, to the authors best knowledge yet unknown to literature (P23, P24 and P26), with their reactivation efficiency directly compared. The four thiosulfonates S-benzyl (1)-, S-propyl (2)-, S-(2-acetic acid) (3)- and S-(2-aminoethyl) (5)-ethanethiosulfonate are shown in FIGS. 6 and 13.
All latent papain forms were synthesized as described (see Example 5, 5.2.1.2) and concentrations of the stock solutions were determined (see Example 5, 5.2.1.3) and are shown in FIG. 14. In favor of allowing for precise comparison of all different papain forms, papain P20-28 were produced and processed simultaneously, whereas production of P28 differed in lack of pre-activation with cysteine and incubation with E64 in order to examine if those two steps are indeed affecting the latent papain quality (P20 vs. P28).
The successfully produced latent papain forms were then utilized in a reactivation assay in accordance with the method of the invention (see Example 5, 5.2.2.2), fluorometric method 1) with the selenocysteine containing activator dU-triazole-PEG3-ULR (21) in concentrations from 1 nM-15 nM. The resulting reaction rates of every papain and every activator concentration are directly compared in FIG. 15.
On second look, it becomes clear that the calculated rates have to be considered in relation to the residual papain activity. Without activator present, the rates of papain differ greatly between the latent derivatives. This must be due solely to their chemical properties and not to a result of remaining active papain after incubation with thiosulfonate, because subsequent incubation with equimolar amounts of E64 inhibitor will inevitably deactivate remaining active papain irreversibly (see Example 5, 5.2.1.2). In order to normalize the presented reaction rates, they were divided through the reaction rate of the corresponding residual activity (blank value) and results are shown in FIG. 16.
as §1

Molecule: COc1ccc(S)cc1 [4-Methoxythiophenol]
- pKa (H2O) [1]: 6.8^b

Molecule: SCc1ccccc1 [benzyl mercaptan, Benzylmercaptan]
- normalized ratio rate/rate 10 μM cysteine of substrate hydrolysis after reactivation of latent papain [2]: 1.69
- pKa (H2O) [1]: 9.4^b

Molecule: Sc1ccc(Br)cc1 [4-Bromothiophenol]
- pKa (H2O) [1]: 6.0^b

Molecule: O=S(=O)(CCS)CCS [bis(2-mercaptoethyl) sulfone]
- normalized ratio rate/rate 10 μM cysteine of substrate hydrolysis after reactivation of latent papain [2]: 3.17
- pKa of thiol, as discussed in text [1]: 7.9

B1: latent papain P24 (-S-S-CH2-COOH) (protein)
chain: IPEYVDWRQKGAVTPVKNQGSCGSCWAFSAVVTIEGIIKIRTGNLNEYSEQELLDCDRRSYGCNGGYPWSALQLVAQYGIHYRNTYPYEGVQRYCRSREKGPYAAKTDGVRQVQPYNEGALLYSIANQPVSVVLEAAGKDFQLYRGGIFVGPCGNKVDHAVAAVGYGPNYILIKNSWGTGWGENGYIRIKRGTGNSYGVCGLYTSSFYPVKN
- normalized ratio rate/rate blank of substrate hydrolysis after reactivation of latent papain (1 nM) with activator 1-15 nM [3]: featured low normalized rates as seen for P24
- reaction rate of Z-Phe-Arg-AMC hydrolysis after reactivation of latent papain (1 nM) with activator 1-15 nM [3]: Papain P24 with its negatively charged residue showed reaction rates close to Papain P20 with the methyl residue

B2: P20: latent papain, methyl mixed disulfide, with cysteine pre-activation and E64 (protein)
chain: IPEYVDWRQKGAVTPVKNQGSCGSCWAFSAVVTIEGIIKIRTGNLNEYSEQELLDCDRRSYGCNGGYPWSALQLVAQYGIHYRNTYPYEGVQRYCRSREKGPYAAKTDGVRQVQPYNEGALLYSIANQPVSVVLEAAGKDFQLYRGGIFVGPCGNKVDHAVAAVGYGPNYILIKNSWGTGWGENGYIRIKRGTGNSYGVCGLYTSSFYPVKN
- normalized rate/rate blank after reactivation, in words [4]: highest of all papain forms; also recorded: twice as high as P28
- residual activity rate compared to P23 ([4]; without activator (blank), papain 1 nM): 25%

B3: P24: latent papain form with negatively charged acetic acid disulfide residue (protein)
chain: IPEYVDWRQKGAVTPVKNQGSCGSCWAFSAVVTIEGIIKIRTGNLNEYSEQELLDCDRRSYGCNGGYPWSALQLVAQYGIHYRNTYPYEGVQRYCRSREKGPYAAKTDGVRQVQPYNEGALLYSIANQPVSVVLEAAGKDFQLYRGGIFVGPCGNKVDHAVAAVGYGPNYILIKNSWGTGWGENGYIRIKRGTGNSYGVCGLYTSSFYPVKN
- normalized rate/rate blank after reactivation, in words [4]: low normalized rates

B4: P26: latent papain form with benzyl disulfide residue (protein)
chain: IPEYVDWRQKGAVTPVKNQGSCGSCWAFSAVVTIEGIIKIRTGNLNEYSEQELLDCDRRSYGCNGGYPWSALQLVAQYGIHYRNTYPYEGVQRYCRSREKGPYAAKTDGVRQVQPYNEGALLYSIANQPVSVVLEAAGKDFQLYRGGIFVGPCGNKVDHAVAAVGYGPNYILIKNSWGTGWGENGYIRIKRGTGNSYGVCGLYTSSFYPVKN
- reaction rate of substrate hydrolysis after reactivation (not normalized), in words [4]: greatly reduced rates
- normalized rate/rate blank after reactivation, in words [4]: third highest normalized rate values

B5: latent papain P25 (-S-S-(CH2)2-CH3) (protein)
chain: IPEYVDWRQKGAVTPVKNQGSCGSCWAFSAVVTIEGIIKIRTGNLNEYSEQELLDCDRRSYGCNGGYPWSALQLVAQYGIHYRNTYPYEGVQRYCRSREKGPYAAKTDGVRQVQPYNEGALLYSIANQPVSVVLEAAGKDFQLYRGGIFVGPCGNKVDHAVAAVGYGPNYILIKNSWGTGWGENGYIRIKRGTGNSYGVCGLYTSSFYPVKN
- normalized ratio rate/rate blank of substrate hydrolysis after reactivation of latent papain (1 nM) with activator 1-15 nM [3]: The second aliphatic residue of P25 showed surprisingly low reactivation potential towards the activator

B6: latent papain P26 (S-S-CH2-C6H5) (protein)
chain: IPEYVDWRQKGAVTPVKNQGSCGSCWAFSAVVTIEGIIKIRTGNLNEYSEQELLDCDRRSYGCNGGYPWSALQLVAQYGIHYRNTYPYEGVQRYCRSREKGPYAAKTDGVRQVQPYNEGALLYSIANQPVSVVLEAAGKDFQLYRGGIFVGPCGNKVDHAVAAVGYGPNYILIKNSWGTGWGENGYIRIKRGTGNSYGVCGLYTSSFYPVKN
- normalized ratio rate/rate blank of substrate hydrolysis after reactivation of latent papain (1 nM) with activator 1-15 nM [3]: papain P26 showed the third highest normalized rate values
- reaction rate of Z-Phe-Arg-AMC hydrolysis after reactivation of latent papain (1 nM) with activator 1-15 nM [3]: The papain variant P26 with its benzyl residue showed greatly reduced rates when compared to all other variants

B7: P25: latent papain form with propyl disulfide residue (protein)
chain: IPEYVDWRQKGAVTPVKNQGSCGSCWAFSAVVTIEGIIKIRTGNLNEYSEQELLDCDRRSYGCNGGYPWSALQLVAQYGIHYRNTYPYEGVQRYCRSREKGPYAAKTDGVRQVQPYNEGALLYSIANQPVSVVLEAAGKDFQLYRGGIFVGPCGNKVDHAVAAVGYGPNYILIKNSWGTGWGENGYIRIKRGTGNSYGVCGLYTSSFYPVKN
- normalized rate/rate blank after reactivation, in words [4]: surprisingly low reactivation potential

B8: P23: latent papain form with positively charged aminoethyl disulfide residue (protein)
chain: IPEYVDWRQKGAVTPVKNQGSCGSCWAFSAVVTIEGIIKIRTGNLNEYSEQELLDCDRRSYGCNGGYPWSALQLVAQYGIHYRNTYPYEGVQRYCRSREKGPYAAKTDGVRQVQPYNEGALLYSIANQPVSVVLEAAGKDFQLYRGGIFVGPCGNKVDHAVAAVGYGPNYILIKNSWGTGWGENGYIRIKRGTGNSYGVCGLYTSSFYPVKN
- reaction rate of substrate hydrolysis after reactivation (not normalized), in words [4]: by far the most efficiently reactivated latent papain form
